Columns and labels:
[1] = test system: HeLa Kyoto; experiment: solubility change mitosis vs G1/S (difference of NP-40 vs SDS log2 ratios) (log2 ratio difference); higher = more soluble in mitosis
[2] = test system: HeLa Kyoto; experiment: solubility in G1/S (NP-40 vs SDS abundance) (log2 ratio); higher = more soluble; conditions: cell cycle stage: G1/S
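Throughout, for solubility change mitosis vs G1/S (difference of NP-40 vs SDS log2 ratios): synchronized HeLa Kyoto cells (double thymidine block for G1/S, nocodazole release for mitosis), protein amounts in NP-40 versus SDS lysates quantified by mass spectrometry, three biological replicates.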
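Throughout, for solubility in G1/S (NP-40 vs SDS abundance): HeLa Kyoto cells arrested at G1/S by double thymidine block, proteins quantified by TMT10plex mass spectrometry in mild NP-40 versus SDS extracts, three biological replicates.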

Row | Sequence | solubility change mitosis (log2) [1] | solubility in G1/S (log2) [2]
1 | MSLPLTEEQRKKIEENRQKALARRAEKLLAEQHQRTSSGTSIAGNPFQAKQGPSQNFPRESCKPVSHGVIFKQQNLSSSSNADQRPHDSHSFQAKGIWKKPEEMPTACPGHSPRSQMALTGISPPLAQSPPEVPKQQLLSYELGQGHAQASPEIRFTPFANPTHKPLAKPKSSQETPAHSSGQPPRDAKLEAKTAKASPSGQNISYIHSSSESVTPRTEGRLQQKSGSSVQKGVNSQKGKCVRNGDRFQVLIGYNAELIAVFKTLPSKNYDPDTKTWNFSMNDYSALMKAAQSLPTVNLQPLEWAYGSSESPSTSSEGQAGLPSAPSLSFVKGRCMLISRAYFEADISYSQDLIALFKQMDSRRYDVKTRKWSFLLEEHSKLIAKVRCLPQVQLDPLPTTLTLAFASQLKKTSLSLTPDVPEADLSEVDPKLVSNLMPFQRAGVNFAIAKGGRLLLADDMGLGKTIQAICIAAFYRKEWPLLVVVPSSVRFTWEQAFLRWLPSLSPDCINVVVTGKDRLTAGLINIVSFDLLSKLEKQLKTPFKVVIIDESHFLKNSRTARCRAAMPVLKVAKRVILLSGTPAMSRPAELYTQIIAVKPTFFPQFHAFGLRYCDAKRMPWGWDYSGSSNLGELKLLLEEAVMLRRLKSDVLSQLPAKQRKIVVIAPGRINARTRAALDAAAKEMTTKDKTKQQQKDALILFFNRTAEAKIPSVIEYILDLLESGREKFLVFAHHKVVLDAITQELERKHVQHIRIDGSTSSAEREDLCQQFQLSERHAVAVLSITAANMGLTFSSADLVVFAELFWNPGVLIQAEDRVHRIGQTSSVGIHYLVAKGTADDYLWPLIQEKIKVLAEAGLSETNFSEMTESTDYLYKDPKQQKIYDLFQKSFEKEGSDMELLEAAESFDPGSASGTSGSSSQNMGDTLDESSLTASPQKKRRFEFFDNWDSFTSPL [SMARCAL1] | 0.0546 | 0.0557
2 | MSLRRHIGNPEYLMKRIPQNPRYQHIKSRLDTGNSMTKYTEKLEEIKKNYRYKKDELFKRLKVTTFAQLIIQVASLSDQTLEVTAEEIQRLEDNDSAASDPDAETTARTNGKGNPGEQSPSPEQFINNAGAGDSSRSTLQSVISGVGELDLDKGPVKKAEPHTKDKPYPDCPFLLLDVRDRDSYQQCHIVGAYSYPIATLSRTMNPYSNDILEYKNAHGKIIILYDDDERLASQAATTMCERGFENLFMLSGGLKVLAQKFPEGLITGSLPASCQQALPPGSARKRSSPKGPPLPAENKWRFTPEDLKKIEYYLEEEQGPADHPSRLNQANSSGRESKVPGARSAQNLPGGGPASHSNPRSLSSGHLQGKPWK [CEP41] | 0.231 | 0.311
3 | MSMTLGYWDIRGLAHAIRLLLEYTDSSYEEKKYTMGDAPDYDRSQWLNEKFKLGLDFPNLPYLIDGAHKITQSNAILCYIARKHNLCGETEEEKIRVDILENQAMDVSNQLARVCYSPDFEKLKPEYLEELPTMMQHFSQFLGKRPWFVGDKITFVDFLAYDVLDLHRIFEPNCLDAFPNLKDFISRFEGLEKISAYMKSSRFLPKPLYTRVAVWGNK [GSTM4] | -0.101 | -0.0869

From the supplement of paper PMC5998384
